From PMC3354639 (Chembiochem, 2012)
No end group written: not given here. *: point of attachment. BODIPY(FL) = CC1=CC(C)=[N+]2C1=Cc1ccc(CCC(=O)*)n1[B-]2(F)F

Legend:
Experiment in all cases: flow cytometry on cells
[1] = molecular target: construct 1 cleaved at the Ala-Arg site by OmpT-AR1 (MDM2-polyArg part) (UniProt Q00987 25-125)
[2] = molecular target: autoinhibited-substrate-MDM2-polyArg (construct 1) (UniProt Q00987 25-125)
[3] = molecular target: MDM2-polyArg (construct 2) (UniProt Q00987 17-125)

**Q.** Which results are given for {BODIPY(FL)}-GTSFAEYWNLLSP [PMI peptide conjugated to the fluorescent dye BODIPY]?
**A.** binding result [1]: binds; fold reduction in fluorescence against construct 2 [2]: > 10 fold; binding result [3]: binds
